Test results taken from patent US20130171235A1.

Target: PTEN-long (endogenous human form, translated from the upstream CUG start site of PTEN mRNA) (Homo sapiens)
Assay: concanavalin A sepharose pulldown from HEK293 lysate, immunoblot

share of PTEN-long in the PTEN pulled down: 50%
Substance: concanavalin A (lectin, on sepharose) (from UniProt P02866)
